This is an account of results in EP4713368A1 (dated 2026).

Sequences and labels used below:
B1: Ab No. 83 (antibody, V domains shown)
VH: EVQLLESGGGLVQPGGSLRLSCAASGFTFSDHSMNWYRQAPGKERELVSAISGSGGSTYYADSVKGRFTISRDNSKNTLYLQMNSLRAEDTAVYYCNARRYQSSGGDVWGQGTQVTVSS
notes: HCAb format (dimer of VH-hinge-CH2-CH3, no VL, CL or CH1)
B2: Ab No. 70 (antibody, V domains shown)
VH: EVQLLESGGGLVQPGGSLRLSCAASGFTFSDYAMSWVRQAPGKERELVSIISASGGTTYYAGSVKGRFTISRDNSKNTLYLQMNSLRAEDTAVYYCAAHASGSYYLDASRDYDADYWGQGTQVTVSS
notes: as for B1
B3: Ab No. 78 (antibody, V domains shown)
VH: EVQLLESGGGLVQPGGSLRLSCAASGFTFDTYSMNWFRQAPGKERELVSAISGVGSTYYADSVKGRFTISRDNSKNTLYLQMNSLRAEDTAVYYCHARGFRLGYDFDYYWGQGTQVTVSS
notes: as for B1

For this experiment, the target named is T1, human CD28 (human, UniProt P10747 19-152, limits assumed).
T1 construct: also called Cluster of Differentiation 28; Tp44
Description: selection from yeast-presented heavy chain-only libraries (HCAb format).
Consider B1, for which the binding result is recorded as “binds”.
B2: the binding result is reported as “binds”.
Turning to B3, the binding result is “binds”.
